# Assay results: the DeepSol protein solubility set
# Assay: soluble on expression in E. coli; label from the status in PepcDB or PDB records
row,Sequence,soluble on expression in E. coli
1,MKFDKPAGENPIDQLKVVGRPHDRIDGPLKTTGTARYAYEWHEEAPNAAYGYIVGSAIAKGRLTALDTDAAQKAPGVLAVITASNAGALGKGDKNTARLLGGPTIEHYHQAIALVVAETFEQARAAASLVQAHYRRNKGAYSLADEKQAVNQPPEDTPDKNVGDFDGAFTSAAVKIDATYTTPDQSHMAMEPHASMAVWDGNKLTLWTSNQMIDWCRTDLAKTLKVPVENVRIISPYIGGGFGGKLFLRSDALLAALAARAVKRPVKVMLPRPSIPNNTTHRPATLQHLRIGADQSGKITAISHESWSGNLPGGTPETAVQQSELLYAGANRHTGLRLATLDLPEGNAMRAPGEAPGLMALEIAIDELAEKAGIDPVEFRILNDTQVDPADPTRCFSRRQLIECLRTGADKFGWKQRNATPGQVRDGEWLVGHGVAAGFRNNLLEKSGARVHLEQNGTVTVETDMTDIGTGSYTILAQTAAEMLGVPLEQVAVHLGDSSFPVSAGSGGQWGANTSTSGVYAACMKLREMIASAVGFDPEQSQFADGKITNGTRSATLHEATAGGRLTAEESIEFGTLSKEYQQSTFAGHFVEVGVHSATGEVRVRRMLAVCAAGRILNPKTARSQVIGAMTMGMGAALMEELAVDDRLGYFVNHDMAGYEVPVHADIPKQEVIFLDDTDPISSPMKAKGVGELGLCGVSAAIANAVYNATGIRVRDYPITLDKLLDKLPDVV,not soluble
2,GSHMLEMSGPRAGFYRQELNKTVWEVPQRLQGLRPVGSGAYGSVCSAYDARLRQKVAVKKLSRPFQSLIHARRTYRELRLLKHLKHENVIGLLDVFTPATSIEDFSEVYLVTTLMGADLNNIVKCQALSDEHVQFLVYQLLRGLKYIHSAGIIHRDLKPSNVAVNEDSELRILDFGLARQADEEMTGYVATRWYRAPEIMLNWMHYNQTVDIWSVGCIMAELLQGKALFPGSDYIDQLKRIMEVVGTPSPEVLAKISSEHARTYIQSLPPMPQKDLSSIFRGANPLAIDLLGRMLVLDSDQRVSAAEALAHAYFSQYHDPEDEPEAEPYDESVEAKERTLEEWKELTYQEVLSFKPPEPPKPPGSLEIEQ,soluble
3,MHAQFHHVSLLARHGQENQSFYTKLLGLRFVKNTVNQDNNRMPHYFYGDYQGTPGSLVTFFIVPLLGNRYEEKNYLATIGLKIPQNSLSFWEQRLTENKIPFNKKEKSLHFSDPDDTHIILTEVPENPLKETLVVSNDIPAAVQIIGLASTEFHVPDSEKTLAFFETFLGWQAVGNTIILSETESFSVHQTTSDKTSRMGRGSMDHIAFSVADDEALQELHTRALAQGWEIEMYVSRGYFKSLYIREPGGNRVEFATLTPGFTLDEPLEHLGETLALPPFLEPKRTAIEANLYKDM,not soluble
4,MSLRSDLINALYDENQKYDVCGIISAEGKIYPLGSDTKVLSTIFELFSRPIINKIAEKHGYIVEEPKQQNHYPDFTLYKPSEPNKKIAIDIKTTYTNKENEKIKFTLGGYTSFIRNNTKNIVYPFDQYIAHWIIGYVYTRVATRKSSLKTYNINELNEIPKPYKGVKVFLQDKWVIAGDLAGSGNTTNIGSIHAHYKDFVEGKGIFDSEDEFLDYWRNYERTSQLRNDKYNNISEYRNWIYRGRK,soluble
5,MGIPSDFSNTGLTGFNVSSTKLVKIEQQYKGVKGKKFISPGGGKFVRIDDPGAVDSNGLRTADASNTSISLETGNTWLPRLHADGTLTCGGKCAWLECTNVTIPKNKRLWFRYAFLRFSSLPADSFSVLLCFPNDDTSVPPLPPYWICSVKELQENRGNINQTDWTECFVEIDKNADFHGTLRWVVATGHNLADQNSIPDNTRFTRPGCLLIDAIDIR,not soluble
6,MSLGSQGSGLEQSSFQWSPSGRRTGSLYCRVGIGFHLQIYPDGKVNGSHEANMLSVLEIFAVSQGIVGIRGVFSNKFLAMSKKGKLHASAKFTDDCKFRERFQENSYNTYASAIHRTEKTGREWYVALNKRGKAKRGCSPRVKPQHISTHFLPRFKQSEQPELSFTVTVPEKEGHHHHHH,not soluble
7,GPGSMSSLQKINDIEAELARTQKNKATMAHICALKARLAQLKRELIASESKKGGGKGEGFDVQKTGDARIGFIGFPSVGKSTLLSKMTSTHSEVAAYEFTTLTCVPGVVNYRGAKLQMLDLPGIIEGAKDGKGRGRQVIAVARTCSLILIVLDIAKPLQHKLIIERELDGFGIRLNKSPPDIVIRKKDRGGISISSTCPLTHIDQETIKIILGEYRMANADVTFRGDYTADEFIDAIEGNRAYIPAIYVLNKIDQISIEELDIVARIPHNCPISAHHEWNLDGLLECIWDHLNFIRVYTKPKGQVPDYDAPVILKKSPQPSVESFCNRIHRQLIRNYKYAWVWGSSVKHQPQRVGKDHSLDDEDVVQVVKKV,not soluble
8,MGSDKIHHHHHHVLINQQYTRHGPDYRFGEQVTFLDVKQTFGFSHVRVGRWVTRDESRLAADLVFDSLADLAFILKLPPLKLGLRETVSLAFGHGGQKGVQAHYAPAARELALAKNAGAGALAHEFWHAFDHYIAAKSFKSSSKRFQCASDLWLSDLPIIEHPLNARLSEIFKVTFLSGNGDEPHDYVRRAIALDKKHGMQYFARPTEMMARAFEACIESYDDISNPYLVSGTRFSAMAKEGAYPDEAHRKVIFQALINYFEPLGMALSKHPLG,not soluble
9,MKKIIALMLFLTFFAHANDSEPGSQYLKAAEAGDRRAQYFLADSWFSSGDLSKAEYWAQKAADSGDADACALLAQIKITNPVSLDYPQAKVLAEKAAQAGSKEGEVTLAHILVNTQAGKPDYPKAISLLENASEDLENDSAVDAQMLLGLIYANGVGIKADDDKATWYFKRSSAISRTGYSEYWAGMMFLNGEEGFIEKNKQKALHWLNLSCMEGFDTGCEEFEKLTNGLEHHHHHH,not soluble
10,MGSDKIHHHHHHMIDFDSLTHDQQLGILQETAEAATANYDLPADVSVDMINLSENATYKIAARDGRRWALRIHRDGYHSRTAIQSELAWLTDLRQTGIVLTPVPVAGKDGEQIQRVGHARLAQPRHVVLSQWETGSEPGIGEALGEPFELLGEVTARMHIHARQWKRPSWFSRHVWDFETSLGEERPHWGRWRDGIGVDAAKARLFGRTAELIGRRLAAFGKGHDRFGLIHCDLRLANLLIDGKTVKVIDFDDCGFGWYMYDAATPISFYEHEPQAADLIRSWTTGYRRVLDLPKADEDEIPTFVMLRRLLLVAWIGSHAETDLAKSMGLPYTEGTVGLCEAYLSKF,not soluble
11,MDCQIGSRRCATWDEIEDAPQTKRLREDKVQENVPQQSVQPAPPPPAAQQAPAPAEQPKFYISAPIQGFTVNNQGGCRYLFF,not soluble
12,MKVDVDEKTYIITMANDITKLYEENKRNLHYSITDPLTGAYNRKYLNDRFDIFIGDYIVLIDLDNFKMINDYEGHNVGDKILCDFVSLLNKELINSTSIIRLGGDEFIVIFSSDVDKNYVYSQLEALRENFLKVFSKYKYLSFSYGVDTVKRNLKLTIVELDKKMYKNKEKNKKKFDKNLEHHHHHH,soluble
13,MNMLEKIQSQLEHLSKSERKVAEVILASPDNAIHSSIAALALEANVSEPTVNRFCRSMDTRGFPDFKLHLAQSLANGTPYVNRNVNEDDSVESYTGKIFESAMATLDHVRHSLDKSAINRAVDLLTQAKKIAFFGLGSSAAVAHDAMNKFFRFNVPVVYSDDIVLQRMSCMNCSDGDVVVLISHTGRTKNLVELAQLARENDAMVIALTSAGTPLAREATLAITLDVPEDTDIYMPMVSRLAQLTVIDVLATGFTLRRGAKFRDNLKRVKEALKESRFDKQLLNLSDDR,soluble
14,LTTHNFARKTFLKLAFCDICQKFLLNGFRCQTCGYKFHEHCSTKVPTMCVDW,soluble
15,MAHHHHHHMAAGSAEEAVALMKSAEKHSQKKFFKRPDWDAAASEYERAARIYTHLEDTNRATDAWRKASGAHQNAENNFFAARAMESLAVFLTEQSRKGMADDTSLLNNAVESYCDASKLYAFNEMFDRQADCLKKAAEIINPTKTIVTGLPATEAGSSQVKQRMQQVVGLFREGVSVLEEHIEDKPVVAVQLSELYRNWMLTHLHNGDVKGAVEVLEEQLGIRADPHKKGVFERLAQPHNSAKAGLEITVLCLSCGDDVWARQEMNKLRGVPGFSTSNEEATANALISSFEERDEEQLRAAMKNQTLQFITIDISRMSRKLKIQFSAPQRTNMTSSSLPNPSLPNEQQQGEEQQEADIDPEEDIR,not soluble
16,MAELQFPGVYVEDVGHLAFGTLKLTEKSLNFKGDKGGKSVNVTGSDIDKLKWQKLGNKPGLRVGLNDGGAHRFGGFKDTDLEKIQSFTSSNWSQSIDQSNLFIKGWNYGQAEVKGKTVEFSWEDKPIFEIPCTNVSNVIANKNEAVLEFHQNDDSKVQLMEMRFHMPIDLENEEDADKVEEFKKAVLAYAGLEAETEQPICLLTDILCTTPRGRYDIKVYPTSIALHGKTYDYKIPIKSINRLFLVPHKDGRHVYFVLSLNPPIRQGQTRYSYLIFEFGKDEEQDLELALTDEQLESSNGNLRRDMTGPIYETISILFKSICNLKITVPGRFLGSSGTPAIQCTHRQNPGLLYPMEKGFLFIHKPAMYIRFEEISSCHFARSDSGTVTRTFDFEIDLKYGGPLTFNAMEKEENNKLFDYLNKKNIKIRNSQRVENTVADSSDDEIDPYKAAVTAEGRQRDDSDDDSTDEDYDLDKDIKKKKEDKESSEGTGSEPDDEYDSGSEQDSSGTGESEPDSEQDVPSKRRKGEPKEKREKKEKREKKEGKKGKKDKDPNAPKRATSAYMQWFLASRNELKEDGDSVADVAKKGGAKWKTMSSDDKKKWEEKAEEDKSRYEKEMKEYRKNGPPSSSSKPSSSKTSKKSSGPSSSKAISKEYISDSDDSDDEEPKKKEKKAAPKEESEESNNGSDGSDESDDSD,soluble
17,MGSDKIHHHHHHMLDPSLLGHRFRRRPWAMFEVLTPLHIGNGNELTPVDFYPLGDRIIVLDTEKLINDLLRLGVEVEELLDFLRNPPGSLYLWRGYLEKLHLDPRNYARYSLRIRGELGRESSRIKEFIKIKGKPYIPGTSLKGAIRTAVLYKVLKDCGDVPTVVEALGKYGKTTGNIIRAITHPGNQDLLDYYLFYLGRGNVRGKQADDILEAIVFGFEAERRFRYEPKRDPMKALIVRDSRLIPLDNLSVYEVRVVGWGSSIPIWVEALDPGTRFEAEVKVDRELLRIGSDYFNGLLWHCLAGEDFEEFVWKAVEEFYGELAKLDNVKERDVIRLGWGSGWISMTVGILLMRKRGWERVRRKLGLGKNPHTNKIVERFPKTKRLANGQPMGWIKI,not soluble
18,HHHHHHMQHLVLIGFMGSGKSSLAQELGLALKLEVLDTDMIISERVGLSVREIFEELGEDNFRMFEKNLIDELKTLKTPHVISTGGGIVMHENLKGLGTTFYLKMDFETLIKRLNQKEREKRPLLNNLTQAKELFEKRQALYEKNASFIIDARGGLNNSLKQVLQFIA,soluble
19,MGPIVSPALHAVQASRFEDVRQARSATGTRTDEGLRRSAGGRYAGASSRGTYQSGAGRVTNPLRRSKVSESLSIHHDVGGHQFETTVDGHRAYLAYMDLGKQTLDIYRTFVPDSLRGRGIAAALTEHALQYADRMGYSVIPSCSYVERYIERRQRQADPAALEHHHHHH,soluble
20,VSAETAARIDAESDSMDWPQEVTLGEVLRERFGDDLVDHVVSALQGGVYSSTSDDLSLRDTVPQLARALDRLKEEGKPVTITAAVQSIMADREKRNKARGYKPSVFAAFPGGYAELYEALAEKSGAKIHIDAFITGIQWKDGFTLKGAEGTFDK,not soluble
21,MGSDKIHHHHHHMIPIKVSMRNLSSLTIAGGSTISSIDIPLNPLGVPPSTIKGTMRTAVHNLLPNGYTSCGEVEPESIREAHKNGVCDVCKLFGYPDSLTGCFTIDVSKTDYRTSYITRVSIDDKTQRAKEGSLFTQQIILPNSDISFTVYYNCNDERLFKLLLYSILDLRYWRLGRNTMIDVKVNNVEEICKSVKCDEEINGILNQLSRYLWEAENK,not soluble
22,QVQLVESGGNLVQPGGSLRLSCAASGFTFGSFSMSWVRQAPGGGLEWVAGLSARSSLTHYADSVKGRFTISRDNAKNSVYLQMNSLRVEDTAVYYCARRSYDSSGYWGHFYSYMDVWGQGTLVTVS,soluble
